Measured values taken from patent publication US20180371093A1 (Novartis, published 2018).
Numbering of substitutions follows the chain as printed.

B1: BAP049-Clone-E (antibody, human IgG4 S228P, kappa)
heavy: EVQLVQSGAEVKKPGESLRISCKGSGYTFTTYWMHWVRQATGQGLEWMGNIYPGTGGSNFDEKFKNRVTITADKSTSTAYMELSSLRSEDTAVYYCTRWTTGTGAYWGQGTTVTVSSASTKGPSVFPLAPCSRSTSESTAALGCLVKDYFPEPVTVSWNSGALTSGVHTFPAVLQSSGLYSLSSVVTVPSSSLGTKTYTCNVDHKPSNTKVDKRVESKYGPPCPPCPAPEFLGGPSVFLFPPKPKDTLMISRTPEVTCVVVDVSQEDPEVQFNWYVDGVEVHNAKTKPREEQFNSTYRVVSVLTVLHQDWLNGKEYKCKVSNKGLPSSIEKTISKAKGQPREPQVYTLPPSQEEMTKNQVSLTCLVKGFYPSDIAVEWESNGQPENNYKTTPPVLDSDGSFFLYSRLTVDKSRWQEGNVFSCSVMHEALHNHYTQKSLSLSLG
light: EIVLTQSPATLSLSPGERATLSCKSSQSLLDSGNQKNFLTWYQQKPGQAPRLLIYWASTRESGVPSRFSGSGSGTDFTFTISSLEAEDAATYYCQNDYSYPYTFGQGTKVEIKRTVAAPSVFIFPPSDEQLKSGTASVVCLLNNFYPREAKVQWKVDNALQSGNSQESVTEQDSKDSTYSLSSTLTLSKADYEKHKVYACEVTHQGLSSPVTKSFNRGEC
B2: BAP049-hum13 (antibody, human IgG4 S228P, kappa)
heavy chain: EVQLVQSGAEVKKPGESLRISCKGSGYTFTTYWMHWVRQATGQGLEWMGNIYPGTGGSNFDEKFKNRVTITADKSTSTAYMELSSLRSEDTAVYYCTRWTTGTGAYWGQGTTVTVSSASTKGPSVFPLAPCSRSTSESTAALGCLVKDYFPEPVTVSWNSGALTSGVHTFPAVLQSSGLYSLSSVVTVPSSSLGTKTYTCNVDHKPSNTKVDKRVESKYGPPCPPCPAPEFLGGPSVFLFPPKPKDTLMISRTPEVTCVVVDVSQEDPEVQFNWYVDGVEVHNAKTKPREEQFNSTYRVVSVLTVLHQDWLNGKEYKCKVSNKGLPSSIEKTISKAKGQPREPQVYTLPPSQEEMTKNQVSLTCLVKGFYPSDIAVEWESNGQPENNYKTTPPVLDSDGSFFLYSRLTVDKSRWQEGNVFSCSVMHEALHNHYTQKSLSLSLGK
light chain: DVVMTQSPLSLPVTLGQPASISCKSSQSLLDSGNQKNFLTWYQQKPGKAPKLLIYWASTRESGVPSRFSGSGSGTDFTFTISSLEAEDAATYYCQNDYSYPYTFGQGTKVEIKRTVAAPSVFIFPPSDEQLKSGTASVVCLLNNFYPREAKVQWKVDNALQSGNSQESVTEQDSKDSTYSLSSTLTLSKADYEKHKVYACEVTHQGLSSPVTKSFNRGEC
notes: also called clone 13
B3: BAP049-hum02 (antibody, human IgG4 S228P, kappa, V domains shown)
VH: EVQLVQSGAEVKKPGESLRISCKGSGYTFTTYWMHWVRQATGQGLEWMGNIYPGTGGSNFDEKFKNRVTITADKSTSTAYMELSSLRSEDTAVYYCTRWTTGTGAYWGQGTTVTVSS
VL: DIQMTQSPSSLSASVGDRVTITCKSSQSLLDSGNQKNFLTWYQQKPGQAPRLLIYWASTRESGIPPRFSGSGYGTDFTLTINNIESEDAAYYFCQNDYSYPYTFGQGTKVEIKR
notes: also called clone 2
B4: BAP049-hum12 (antibody, human IgG4 S228P, kappa, V domains shown)
VH: B3 VH
VL: DIQMTQSPSSLSASVGDRVTITCKSSQSLLDSGNQKNFLTWYLQKPGQSPQLLIYWASTRESGVPSRFSGSGSGTDFTFTISSLEAEDAATYYCQNDYSYPYTFGQGTKVEIKR
notes: also called clone 12
B5: BAP049-hum11 (antibody, human IgG4 S228P, kappa)
heavy: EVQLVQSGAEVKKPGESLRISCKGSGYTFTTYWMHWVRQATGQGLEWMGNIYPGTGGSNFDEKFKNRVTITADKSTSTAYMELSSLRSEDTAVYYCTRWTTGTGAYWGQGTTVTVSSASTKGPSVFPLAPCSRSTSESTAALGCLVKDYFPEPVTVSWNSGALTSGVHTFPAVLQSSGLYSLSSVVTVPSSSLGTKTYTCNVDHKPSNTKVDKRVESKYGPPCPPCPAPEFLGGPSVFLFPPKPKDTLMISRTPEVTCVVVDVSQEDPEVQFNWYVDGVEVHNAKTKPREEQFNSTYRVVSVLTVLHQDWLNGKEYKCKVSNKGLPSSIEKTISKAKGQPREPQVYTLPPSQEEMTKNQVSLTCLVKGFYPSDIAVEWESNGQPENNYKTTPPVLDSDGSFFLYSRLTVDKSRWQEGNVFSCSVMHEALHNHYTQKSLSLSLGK
light: B1 light
notes: Humanized mAb
B6: BAP049-hum10 (antibody, human IgG4 S228P, kappa)
heavy: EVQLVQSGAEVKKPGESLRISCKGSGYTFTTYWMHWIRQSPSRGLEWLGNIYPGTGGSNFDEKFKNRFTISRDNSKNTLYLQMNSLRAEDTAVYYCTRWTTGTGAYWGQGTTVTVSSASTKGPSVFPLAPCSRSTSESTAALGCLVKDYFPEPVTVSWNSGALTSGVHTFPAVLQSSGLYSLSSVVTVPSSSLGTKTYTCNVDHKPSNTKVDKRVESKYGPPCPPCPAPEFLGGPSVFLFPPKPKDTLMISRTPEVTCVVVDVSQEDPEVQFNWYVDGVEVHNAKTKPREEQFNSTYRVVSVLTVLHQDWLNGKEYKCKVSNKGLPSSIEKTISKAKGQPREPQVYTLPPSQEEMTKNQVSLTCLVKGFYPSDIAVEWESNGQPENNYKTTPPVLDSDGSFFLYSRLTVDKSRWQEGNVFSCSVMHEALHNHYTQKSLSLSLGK
light: B1 light
notes: Humanized mAb
B7: BAP049-hum15 (antibody, human IgG4 S228P, kappa)
heavy chain: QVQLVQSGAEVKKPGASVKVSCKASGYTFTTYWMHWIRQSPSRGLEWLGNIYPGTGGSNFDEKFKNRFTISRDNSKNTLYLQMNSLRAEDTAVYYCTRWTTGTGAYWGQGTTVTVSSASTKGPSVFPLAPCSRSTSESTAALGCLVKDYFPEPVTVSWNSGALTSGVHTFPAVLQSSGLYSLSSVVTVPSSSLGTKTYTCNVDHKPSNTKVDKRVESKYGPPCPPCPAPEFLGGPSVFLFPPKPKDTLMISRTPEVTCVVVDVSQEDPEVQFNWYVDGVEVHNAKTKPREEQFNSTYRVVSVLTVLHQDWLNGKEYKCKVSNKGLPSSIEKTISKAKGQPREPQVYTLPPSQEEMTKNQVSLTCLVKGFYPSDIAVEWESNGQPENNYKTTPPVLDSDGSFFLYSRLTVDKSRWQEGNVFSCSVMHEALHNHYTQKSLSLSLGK
light chain: B1 light with A9D, T10F, L11Q, L13V, S14T, G16K, R18K, A19V, L21I, S22T
notes: also called clone 15
B8: BAP049-hum08 (antibody, human IgG4 S228P, kappa)
heavy: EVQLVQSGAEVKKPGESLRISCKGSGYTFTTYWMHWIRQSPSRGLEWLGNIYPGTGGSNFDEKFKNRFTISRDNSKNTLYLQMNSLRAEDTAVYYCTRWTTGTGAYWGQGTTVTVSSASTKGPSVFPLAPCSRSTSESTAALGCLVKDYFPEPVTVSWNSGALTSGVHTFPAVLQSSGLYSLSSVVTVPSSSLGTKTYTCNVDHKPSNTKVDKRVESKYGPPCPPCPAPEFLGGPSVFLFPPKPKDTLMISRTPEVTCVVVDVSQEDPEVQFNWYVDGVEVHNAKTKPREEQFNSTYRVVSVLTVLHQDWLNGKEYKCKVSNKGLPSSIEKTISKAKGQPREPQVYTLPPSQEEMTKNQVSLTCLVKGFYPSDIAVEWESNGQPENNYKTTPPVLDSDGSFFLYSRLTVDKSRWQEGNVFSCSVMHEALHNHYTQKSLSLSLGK
light: B1 light with A9D, T10F, L11Q, L13V, S14T, G16K, R18K, A19V, L21I, S22T
notes: Humanized mAb
B9: BAP049-hum07 (antibody, human IgG4 S228P, kappa)
heavy chain: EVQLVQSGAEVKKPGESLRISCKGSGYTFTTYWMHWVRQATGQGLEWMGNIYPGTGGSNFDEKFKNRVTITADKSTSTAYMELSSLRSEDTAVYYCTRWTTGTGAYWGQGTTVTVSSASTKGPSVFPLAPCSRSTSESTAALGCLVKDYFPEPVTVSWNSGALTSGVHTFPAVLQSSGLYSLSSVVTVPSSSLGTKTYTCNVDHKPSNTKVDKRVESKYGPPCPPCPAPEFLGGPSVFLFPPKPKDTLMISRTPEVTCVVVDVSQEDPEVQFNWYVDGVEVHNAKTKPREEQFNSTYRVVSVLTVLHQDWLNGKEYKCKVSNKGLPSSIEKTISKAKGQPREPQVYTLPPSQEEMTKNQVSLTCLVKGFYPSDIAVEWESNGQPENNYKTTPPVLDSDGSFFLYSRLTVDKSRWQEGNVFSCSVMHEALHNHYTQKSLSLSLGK
light chain: B1 light with Q48K, R51K
notes: also called clone 7
B10: BAP049-hum04 (antibody, human IgG4 S228P, kappa, V domains shown)
VH: EVQLVQSGAEVKKPGESLRISCKGSGYTFTTYWMHWIRQSPSRGLEWLGNIYPGTGGSNFDEKFKNRFTISRDNSKNTLYLQMNSLRAEDTAVYYCTRWTTGTGAYWGQGTTVTVSS
VL: EIVLTQSPATLSLSPGERATLSCKSSQSLLDSGNQKNFLTWYQQKPGKAPKLLIYWASTRESGVPSRFSGSGSGTDFTFTISSLQPEDIATYYCQNDYSYPYTFGQGTKVEIKR
notes: also called clone 4
B11: BAP049-hum01 (antibody, human IgG4 S228P, kappa, V domains shown)
VH: B3 VH
VL: B10 VL with K48Q, K51R, D76E, F79L, E87D, I89F
notes: Humanized mAb
B12: BAP049-hum06 (antibody, human IgG4 S228P, kappa)
heavy chain: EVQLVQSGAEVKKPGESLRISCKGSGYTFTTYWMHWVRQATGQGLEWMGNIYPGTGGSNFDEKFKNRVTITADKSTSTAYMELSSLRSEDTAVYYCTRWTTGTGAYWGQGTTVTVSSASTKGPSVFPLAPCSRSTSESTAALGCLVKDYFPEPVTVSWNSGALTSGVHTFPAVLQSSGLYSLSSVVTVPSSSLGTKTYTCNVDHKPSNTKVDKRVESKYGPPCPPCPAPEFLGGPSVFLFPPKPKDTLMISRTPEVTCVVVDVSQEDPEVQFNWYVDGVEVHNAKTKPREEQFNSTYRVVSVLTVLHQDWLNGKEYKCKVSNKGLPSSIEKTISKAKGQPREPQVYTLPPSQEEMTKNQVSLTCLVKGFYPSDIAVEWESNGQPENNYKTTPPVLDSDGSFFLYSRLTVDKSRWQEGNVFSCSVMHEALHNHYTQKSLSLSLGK
light chain: B2 light chain with V2I, S7T, L15P, Q17E, K48Q, K51R
notes: also called clone 6
B13: BAP049-hum14 (antibody, human IgG4 S228P, kappa)
heavy chain: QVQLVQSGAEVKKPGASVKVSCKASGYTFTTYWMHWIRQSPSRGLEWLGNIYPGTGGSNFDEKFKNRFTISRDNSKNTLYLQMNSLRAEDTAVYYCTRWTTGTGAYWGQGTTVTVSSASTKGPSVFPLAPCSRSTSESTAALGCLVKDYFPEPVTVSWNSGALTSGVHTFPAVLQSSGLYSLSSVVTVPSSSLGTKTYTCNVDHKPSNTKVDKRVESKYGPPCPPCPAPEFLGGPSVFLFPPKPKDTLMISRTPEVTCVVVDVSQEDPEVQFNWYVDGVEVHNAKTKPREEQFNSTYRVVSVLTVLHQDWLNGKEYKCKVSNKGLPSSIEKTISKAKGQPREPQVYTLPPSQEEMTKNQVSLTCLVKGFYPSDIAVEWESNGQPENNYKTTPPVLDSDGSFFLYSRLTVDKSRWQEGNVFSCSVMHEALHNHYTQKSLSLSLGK
light chain: B1 light
notes: also called clone 14
B14: BAP049-hum09 (antibody, human IgG4 S228P, kappa)
heavy: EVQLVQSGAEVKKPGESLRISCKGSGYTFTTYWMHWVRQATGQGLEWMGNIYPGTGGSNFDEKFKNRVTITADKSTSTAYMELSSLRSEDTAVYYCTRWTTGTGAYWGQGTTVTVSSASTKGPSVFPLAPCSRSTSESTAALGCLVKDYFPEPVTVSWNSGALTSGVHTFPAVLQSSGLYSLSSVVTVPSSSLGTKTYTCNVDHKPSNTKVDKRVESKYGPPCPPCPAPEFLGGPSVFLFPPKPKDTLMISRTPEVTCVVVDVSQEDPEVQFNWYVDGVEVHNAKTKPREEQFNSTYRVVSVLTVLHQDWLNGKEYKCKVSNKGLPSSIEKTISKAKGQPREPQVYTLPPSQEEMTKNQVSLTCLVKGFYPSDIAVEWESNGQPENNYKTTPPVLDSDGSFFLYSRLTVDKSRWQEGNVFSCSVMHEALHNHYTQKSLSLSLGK
light: B1 light with A9D, T10F, L11Q, L13V, S14T, G16K, R18K, A19V, L21I, S22T
notes: Humanized mAb
B15: BAP049-hum05 (antibody, human IgG4 S228P, kappa, V domains shown)
VH: B3 VH
VL: B10 VL
notes: Humanized mAb
B16: BAP049-hum16 (antibody, human IgG4 S228P, kappa, V domains shown)
VH: B10 VH with I37V, S40A, S42G, R43Q, L48M
VL: EIVLTQSPDFQSVTPKEKVTITCKSSQSLLDSGNQKNFLTWYQQKPGQAPRLLIYWASTRESGVPSRFSGSGSGTDFTFTISSLEAEDAATYYCQNDYSYPYTFGQGTKVEIKR
notes: also called clone 16
B17: BAP049-hum03 (antibody, human IgG4 S228P, kappa, V domains shown)
VH: B10 VH
VL: B3 VL
notes: also called clone 3
B18: Chi mAb (Tyr) (antibody, human IgG4 S228P, kappa, V domains shown)
VH: QVQLQQSGSELVRPGASVKLSCKASGYTFTTYWMHWVRQRPGQGLEWIGNIYPGTGGSNFDEKFKNRTSLTVDTSSTTAYMHLASLTSEDSAVYYCTRWTTGTGAYWGQGTTVTVSS
VL: DIVMTQSPSSLTVTAGEKVTMSCKSSQSLLDSGNQKNFLTWYQQKPGQPPKLLIFWASTRESGVPDRFTGSGSVTDFTLTISSVQAEDLAVYYCQNDYSYPYTFGQGTKVEIKR
notes: also called BAP049-chi-Y; Chi (Tyr)
B19: Mu mAb (antibody, V domains shown)
VH: B18 VH with T112L, S117A
VL: DIVMTQSPSSLTVTAGEKVTMSCKSSQSLLDSGNQKNFLTWYQQKPGQPPKLLIFWASTRESGVPDRFTGSGSVTDFTLTISSVQAEDLAVYYCQNDYSYPCTFGGGTKLEIK
notes: Unlabelled when its concentration is varied; also called murine anti-PD-1 mAb BAP049; Mu mAb control

Each binder was assayed against T1, Programmed Death 1 (PD-1) (UniProt Q15116 25-167, limits assumed) (assay: cell-based or functional assay).
T1 sequence (Q15116 25-167 limits assumed): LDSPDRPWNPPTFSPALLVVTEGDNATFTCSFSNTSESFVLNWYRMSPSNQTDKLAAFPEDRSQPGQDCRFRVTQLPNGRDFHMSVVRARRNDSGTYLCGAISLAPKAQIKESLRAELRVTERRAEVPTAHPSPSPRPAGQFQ

| Binder | ex vivo EC50 for PD-1 blockade (IL-2 change in SEB ex-vivo assay) [µg/mL] |
| --- | --- |
| B1 | 0.42 |

What follows are binders tested against T1, Programmed Death 1 (PD-1) (assay: rank in competition binding against labelled murine mAb BAP049, 2nd experiment).

| Binder | Competition Binding 2nd exp. (rank) |
| --- | --- |
| B2 | 1 |
| B3 | 2 |
| B4 | 16 |
| B5 | > 4 |
| B6 | > 4 |
| B7 | 15 |
| B8 | 4 |
| B9 | > 4 |
| B10 | 15 |
| B11 | 2 |
| B12 | 3 |
| B13 | 15 |
| B14 | 4 |
| B15 | > 4 |
| B16 | 15 |
| B17 | 14 |

These binders were tested against T1, Programmed Death 1 (PD-1) (assay: FACS ligand blocking: binding of PD-L1-Ig to PD-1 at increasing mAb concentration (legend paragraph 212 names 'PD-L1-Ig and PD-L2-Ig' for FIG. 8A)).

| Binder | IC50 (read off the curve) [µg/mL] |
| --- | --- |
| B18 | ~0.9 |
| B19 | ~0.7 |
| B6 | ~1 |
| B11 | ~1 |
| B15 | ~1 |

What follows are binders tested against T1, Programmed Death 1 (PD-1) (assay: rank in competition binding against labelled murine mAb BAP049, 1st experiment).

| Binder | Competition Binding 1st exp. (rank) |
| --- | --- |
| B2 | 1 |
| B3 | 3 |
| B4 | 8 |
| B5 | 4 |
| B6 | 6 |
| B7 | 7 |
| B8 | 7 |
| B9 | 7 |
| B10 | 15 |
| B11 | 7 |
| B12 | 7 |
| B13 | 7 |
| B14 | 2 |
| B15 | 5 |
| B16 | 16 |
| B17 | 8 |

Each binder was assayed against T1, Programmed Death 1 (PD-1) (assay: rank among the 16 humanized clones by FACS binding data).

| Binder | Ranking FACS data [rank] |
| --- | --- |
| B2 | 6 |
| B3 | 6 |
| B4 | 3 |
| B5 | 6 |
| B6 | 7 |
| B7 | 6 |
| B8 | 7 |
| B9 | 4 |
| B10 | 14 |
| B11 | 2 |
| B12 | 1 |
| B13 | 16 |
| B14 | 7 |
| B15 | 5 |
| B16 | 15 |
| B17 | 7 |
